The values below come from patent US20160129086A1.

The assay deals with CD20 on human lymphoma cells (Daudi, Jeko-1) (UniProt P11836). The assay can be described thus: cell-based or functional assay.
CD20 on human lymphoma cells (Daudi, Jeko-1), sequence (P11836 whole entry): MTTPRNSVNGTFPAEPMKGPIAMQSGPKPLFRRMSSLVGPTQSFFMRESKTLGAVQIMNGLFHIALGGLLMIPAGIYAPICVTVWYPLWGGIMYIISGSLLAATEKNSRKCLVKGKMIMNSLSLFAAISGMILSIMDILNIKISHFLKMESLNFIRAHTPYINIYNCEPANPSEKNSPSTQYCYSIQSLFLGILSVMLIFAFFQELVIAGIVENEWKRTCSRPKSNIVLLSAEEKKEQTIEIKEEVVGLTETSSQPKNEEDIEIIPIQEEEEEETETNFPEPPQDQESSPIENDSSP

20-2b (from UniProt P01563 24-188): the EC50, high-concentration response, in vitro proliferation of Jeko-1 cells turned out to be 0.85 nM and the EC50, low-concentration response, in vitro proliferation of Jeko-1 cells is 0.00097 nM.

In turn, veltuzumab (antibody) came in with an EC50, in vitro proliferation of Jeko-1 cells of 1.5 nM.
